Measured values taken from the supplement of paper PMC10126150.
± gives the standard deviation of the averaged measurements.

Test system: ATP
Assay: switch fluorescence ratio, 500 uM ATP over buffer (Cy3 cluster intensity, sum of 5 cycles each) (fold (ratio)); higher = stronger signal-on switching upon ATP binding; sequences stand for … in TCGTCGGCAGCGTCAGATGTGTATAAGAGACAGTTTTTTTTTTTTTTTTTTTTTTTTT…TC
Conditions: aptamer strand: ATP DNA aptamer (quencher-CACCTGGGGGAGTATTGCGGAGGAAGG + anchor), 100 nM annealed; ATP concentration: 500 uM
Summary of the method: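 For every switch-domain sequence, the fluorescence ratio is the mean of per-cluster values, each being summed target-cycle Cy3 intensity over summed buffer-cycle Cy3 intensity. Clusters outside 100-1000 RFU were excluded. On a modified Illumina MiSeq flow-cell, the Cy3-labelled switching-strand clusters were annealed to 100 nM quencher-labelled ATP aptamer, imaged in selection buffer and then after 15 min with 500 uM ATP at 22 °C. Five such cycles were run, with NaOH stripping and re-annealing between them.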
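Also: ATP exposure 15 min at 22 °C before imaging.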

Row | Sequence | switch fluorescence ratio
1 | ACAGGGGTGT | 1.09 ± 0.014
2 | ACAGGTACAT | 1.12 ± 0.034
3 | ACAGTACTTG | 1.292 ± 0.0098
4 | ACAGTACTTT | 1.26 ± 0.019
5 | ACAGTAGTAG | 1.07 ± 0.026
6 | ACAGTGTGTT | 0.979 ± 0.018
7 | ACAGTTAATA | 1.06 ± 0.018
8 | ACAGTTATTC | 1.02 ± 0.048
9 | ACAGTTGGGT | 1.002 ± 0.0047
10 | ACATAAAAGG | 0.994 ± 0.021
11 | ACATACATTG | 1.27 ± 0.061
12 | ACATAGGTCA | 1.02 ± 0.022
13 | ACATAGGTGA | 1.1 ± 0.069
14 | ACATAGTTTG | 0.9892 ± 0.0034
15 | ACATATAGAG | 1.051 ± 0.0097
16 | ACATCGGATG | 0.995 ± 0.025
17 | ACATCGGGAT | 1.017 ± 0.0012
18 | ACATCGGTTC | 1.02 ± 0.029
19 | ACATCTATTC | 1.01 ± 0.034
20 | ACATGACAGA | 1.08 ± 0.038
21 | ACATGACATG | 1.04 ± 0.03
22 | ACATGAGAAA | 0.988 ± 0.052
23 | ACATGCTGTA | 0.995 ± 0.024

Row | Sequence | switch fluorescence ratio
24 | ACATGGGGA | 1.002 ± 0.0018
25 | ACATGGGGTT | 0.998 ± 0.03
26 | ACATGTAGCG | 0.99 ± 0.021
27 | ACATGTGGCA | 1.04 ± 0.018
28 | ACATTAACTA | 1.09 ± 0.019
29 | ACATTCATCG | 1.06 ± 0.034
30 | ACATTCCTGT | 1.05 ± 0.046
31 | ACATTCTGGA | 0.988 ± 0.031
32 | ACATTGAGGT | 1.01 ± 0.048
33 | ACATTGTTTT | 1.02 ± 0.021
34 | ACATTTATCT | 1.02 ± 0.02
35 | ACATTTATGG | 0.999 ± 0.021
36 | ACATTTGGGT | 1.0104 ± 0.00044
37 | ACATTTTTAT | 1.03 ± 0.015
38 | ACATTTTTTT | 1.01 ± 0.029
39 | ACCAAACCGG | 1.039 ± 0.0079
40 | ACCAAAGGCG | 1.04 ± 0.043
41 | ACCAACCGTG | 1.1028 ± 0.00051
42 | ACCACGTGAC | 1.51 ± 0.035
43 | ACCAGCGAAT | 1.06 ± 0.043
44 | ACCAGCTTTT | 1.04 ± 0.03
45 | ACCAGGTGTG | 3.53 ± 0.34
46 | ACCAGTAGGT | 1.01 ± 0.035

Row | Sequence | switch fluorescence ratio
47 | ACCATACTGT | 1.33 ± 0.055
48 | ACCATATTTG | 1.04 ± 0.058
49 | ACCATATTTT | 1.073 ± 0.0094
50 | ACCATCCGGC | 1.12 ± 0.012
51 | ACCATTACAC | 1.24 ± 0.024
52 | ACCATTAGCA | 0.998 ± 0.022
53 | ACCCAAGATT | 1.01 ± 0.017
54 | ACCCAGAAGG | 1.08 ± 0.043
55 | ACCCATCTGT | 0.979 ± 0.013
56 | ACCCATGCGA | 1.13 ± 0.036
57 | ACCCATTGTA | 1.064 ± 0.0071
58 | ACCCCATGCG | 1.22 ± 0.037
59 | ACCCCGGTAA | 1.87 ± 1.2
60 | ACCCGGGGCA | 1.05 ± 0.054
61 | ACCCGTACAT | 1.11 ± 0.022
62 | ACCCGTTTTG | 1.01 ± 0.025
63 | ACCCTGGACA | 1.01 ± 0.019
64 | ACCGAGCAAG | 4.12 ± 0.19
65 | ACCGAGGCAT | 3.81 ± 1.5
66 | ACCGAGGGGG | 1.02 ± 0.041
67 | ACCGCGGGCG | 1.069 ± 0.0053
68 | ACCGCTTACG | 1.56 ± 0.12
69 | ACCGGCGAGG | 1.01 ± 0.036

Row | Sequence | switch fluorescence ratio
70 | ACCGGGGCTC | 1.05 ± 0.052
71 | ACCGGGGGAG | 0.984 ± 0.02
72 | ACCGGGGTGT | 1.17 ± 0.14
73 | ACCGGGTTGG | 0.999 ± 0.01
74 | ACCGGTCTAT | 1.031 ± 0.00046
75 | ACCGGTGCTT | 1.04 ± 0.032
76 | ACCGGTTACA | 1.03 ± 0.042
77 | ACCGGTTTTT | 1.04 ± 0.045
78 | ACCGTAGCTT | 2.61 ± 0.14
79 | ACCGTCAGGT | 1 ± 0.085
80 | ACCTACAAGG | 0.99429 ± 0.00094
81 | ACCTAGCGAT | 1.57 ± 0.03
82 | ACCTCATTTG | 1.067 ± 0.0049
83 | ACCTCGTTTT | 0.9879 ± 0.0062
84 | ACCTGATATA | 1.03 ± 0.021
85 | ACCTGATCGT | 1.087 ± 0.0051
86 | ACCTGATTAT | 1.02 ± 0.02
87 | ACCTGCAATG | 2.43 ± 0.2
88 | ACCTGCATGG | 1.05 ± 0.11
89 | ACCTGCTAAC | 1.59 ± 0.024
90 | ACCTGGACCT | 1.33 ± 0.032
91 | ACCTGGATAC | 1.86 ± 0.019
92 | ACCTGGGCGC | 1.2 ± 0.12

Row | Sequence | switch fluorescence ratio
93 | ACCTGTATTT | 1 ± 0.02
94 | ACCTGTGAGT | 0.9909 ± 0.0019
95 | ACCTTCTTTT | 1.11 ± 0.11
96 | ACCTTGAGAG | 1 ± 0.011
97 | ACCTTGGTGT | 1.01 ± 0.053
98 | ACCTTTTTTG | 0.992 ± 0.024
99 | ACGAAAACGC | 1.36 ± 0.23
100 | ACGAAAGTCT | 1.03 ± 0.041
101 | ACGAACGGTA | 1.37 ± 0.032
102 | ACGAAGAGTT | 1.05 ± 0.019
103 | ACGAATGCGT | 0.975 ± 0.047
104 | ACGACTGGGG | 1.02 ± 0.03
105 | ACGACTTGGT | 1.09 ± 0.11
106 | ACGACTTTGT | 1.02 ± 0.032
107 | ACGAGAGAAA | 0.974 ± 0.017
108 | ACGAGCTGCT | 1.032 ± 0.0038
109 | ACGAGTAGCT | 1.01 ± 0.014
110 | ACGAGTCTGG | 1.08 ± 0.039
111 | ACGAGTGTTG | 1.03 ± 0.037
112 | ACGAGTTCAT | 0.999 ± 0.017
113 | ACGAGTTCCT | 0.989 ± 0.056
114 | ACGATAGGGC | 1.06 ± 0.046
115 | ACGATGTATC | 1.06 ± 0.049

Row | Sequence | switch fluorescence ratio
116 | ACGATTGGTG | 1.07 ± 0.056
117 | ACGCAACGCC | 1.6634 ± 0.0003
118 | ACGCCTACGA | 1.15 ± 0.09
119 | ACGCGCGCGC | 0.987 ± 0.036
120 | ACGCGGCAGG | 1.02 ± 0.022
121 | ACGCGGCGGG | 0.977 ± 0.036
122 | ACGCTAATGT | 1.35 ± 0.23
123 | ACGCTAGGGC | 1.16 ± 0.039
124 | ACGCTGGGGA | 0.993 ± 0.016
125 | ACGGAAACGC | 1.1 ± 0.02
126 | ACGGAAGTTA | 1.02 ± 0.025
127 | ACGGACCATT | 1.27 ± 0.014
128 | ACGGAGACCG | 1.01 ± 0.038
129 | ACGGAGCCTT | 1.32 ± 0.036
130 | ACGGAGGGGT | 1.14 ± 0.13
131 | ACGGAGGGTG | 1.029 ± 0.0088
132 | ACGGATTTGG | 0.9926 ± 0.0095
133 | ACGGCAACAT | 1.31 ± 0.1
134 | ACGGCAAGGA | 1.12 ± 0.028
135 | ACGGCAGTGA | 1.0394 ± 0.00012
136 | ACGGCCGGTC | 0.9773 ± 0.0026
137 | ACGGCGGTGC | 1.034 ± 0.0078
138 | ACGGCTGAGC | 1.04 ± 0.03

Row | Sequence | switch fluorescence ratio
139 | ACGGCTGTTA | 1.012 ± 0.0046
140 | ACGGGAAAAG | 1.01 ± 0.035
141 | ACGGGAATTG | 1.04 ± 0.019
142 | ACGGGACGGG | 1.02 ± 0.035
143 | ACGGGCAATG | 1.32 ± 0.16
144 | ACGGGCATTC | 1.76 ± 0.42
145 | ACGGGCGGGG | 1.02 ± 0.021
146 | ACGGGCTAGG | 1.01 ± 0.027
147 | ACGGGGAATG | 1.01 ± 0.056
148 | ACGGGGAGGT | 0.981 ± 0.04
149 | ACGGGGAGTT | 1.05 ± 0.031
150 | ACGGGGCATT | 1 ± 0.043
151 | ACGGGGCTTT | 1.05 ± 0.024
152 | ACGGGGGGAT | 1.04 ± 0.089
153 | ACGGGGGGGA | 1.03 ± 0.032
154 | ACGGGGGTGT | 0.984 ± 0.024
155 | ACGGGGTTTC | 1.01 ± 0.021
156 | ACGGGTATTA | 0.9907 ± 0.0014
157 | ACGGGTATTG | 1.02 ± 0.034
